The values below come from the supplement of paper PMC9112550, “Optimization of the antimicrobial peptide Bac7 by deep mutational scanning” (BMC Biology, 2022).

The subject of this series is Escherichia coli TOP10. The series is described as follows: shrunken log2 fold change of peptide-encoding DNA abundance (4.5 h post-induction vs induction); higher = less antimicrobial activity (less host growth inhibition). The note with it: time post-induction: 4.5 h; library: site-saturation at positions 5, 18, 19, 20.
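Further: peptides expressed intracellularly from a pBAD plasmid library in pooled LB shake-flask culture, induced with 0.3% L-arabinose, DNA abundance read by NGS, three biological replicates, DESeq2 with apeglm shrinkage.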

For RRIRHRPPRLPRPRPRPAMDPRP, the “shrunken log2 fold change” value is -0.221.
Then RRIRCRPPRLPRPRPRPTAWPRP, with 0.79; and RRIRKRPPRLPRPRPRPLRFPRP, with 0.896; and RRIRLRPPRLPRPRPRPLFKPRP, with -0.188.
Then RRIRSRPPRLPRPRPRPIPKPRP, with 0.125; and RRIRQRPPRLPRPRPRPLLCPRP, with 0.126; and RRIRTRPPRLPRPRPRPRAPPRP, with 0.511.
Take RRIRPRPPRLPRPRPRPGWKPRP: the “shrunken log2 fold change” value turned out to be 0.269.
Take RRIRVRPPRLPRPRPRPGKSPRP: the “shrunken log2 fold change” value was -0.0236.
For RRIRDRPPRLPRPRPRPRDLPRP, the “shrunken log2 fold change” value was 0.139.
With RRIRHRPPRLPRPRPRPHAIPRP, the “shrunken log2 fold change” value was -0.251.
As to RRIRMRPPRLPRPRPRPTKMPRP, the “shrunken log2 fold change” value is 0.745.
For RRIRSRPPRLPRPRPRPMICPRP, the “shrunken log2 fold change” value was -0.0898.
On to RRIRWRPPRLPRPRPRPFMWPRP, for which the “shrunken log2 fold change” value was -0.0278.
Consider RRIRKRPPRLPRPRPRPTCFPRP, for which the “shrunken log2 fold change” value was found to be 0.259.
In the case of RRIRMRPPRLPRPRPRPRHDPRP, the “shrunken log2 fold change” value worked out at 0.659.
As for RRIRDRPPRLPRPRPRPNSDPRP, the figure is -0.272; as for RRIRSRPPRLPRPRPRPVYRPRP, -0.398.
Regarding RRIRKRPPRLPRPRPRPDTSPRP, the “shrunken log2 fold change” value worked out at 0.0236.
Then RRIRARPPRLPRPRPRPEGSPRP, with 0.805; and RRIRPRPPRLPRPRPRPEKGPRP, with 0.321; and RRIRYRPPRLPRPRPRPNSNPRP, with -1.47.
On to RRIRHRPPRLPRPRPRPHAPPRP, for which the “shrunken log2 fold change” value was -0.0972.
As for RRIRNRPPRLPRPRPRPSHIPRP, the figure is -0.69; as for RRIRIRPPRLPRPRPRPYNSPRP, -0.0199; as for RRIRERPPRLPRPRPRPHTRPRP, -0.0821.
As for RRIRVRPPRLPRPRPRPIYQPRP, the figure is -0.27; as for RRIRERPPRLPRPRPRPKYKPRP, -0.369.
On to RRIRVRPPRLPRPRPRPNFQPRP, for which the “shrunken log2 fold change” value is -0.175.
As to RRIRNRPPRLPRPRPRPNIRPRP, the “shrunken log2 fold change” value is -0.103.
As for RRIRQRPPRLPRPRPRPFQHPRP, the figure is -0.117; as for RRIRKRPPRLPRPRPRPCAQPRP, 0.208; as for RRIRLRPPRLPRPRPRPHSEPRP, -0.431.
On to RRIRPRPPRLPRPRPRPVWWPRP, for which the “shrunken log2 fold change” value turned out to be 0.232.
As for RRIRGRPPRLPRPRPRPMRIPRP, the “shrunken log2 fold change” value came out at 2.34.
As for RRIRKRPPRLPRPRPRPCFEPRP, the figure is 0.336.
As for RRIRPRPPRLPRPRPRPVREPRP, the figure is 0.605; as for RRIRRRPPRLPRPRPRPNPQPRP, 0.631; as for RRIRNRPPRLPRPRPRPKPCPRP, 0.159.
As for RRIRSRPPRLPRPRPRPWDCPRP, the figure is -0.00801; as for RRIRHRPPRLPRPRPRPSCMPRP, -0.224.
Take RRIRLRPPRLPRPRPRPRWDPRP: the “shrunken log2 fold change” value is 0.141.
For RRIRCRPPRLPRPRPRPVHVPRP, the “shrunken log2 fold change” value was -0.496.
RRIRRRPPRLPRPRPRPYQMPRP: the “shrunken log2 fold change” value was -0.0261.
In the case of RRIRIRPPRLPRPRPRPWHFPRP, the “shrunken log2 fold change” value was -0.0737.
As for RRIRNRPPRLPRPRPRPLDTPRP, the figure is -0.0954; as for RRIRYRPPRLPRPRPRPPGEPRP, 0.0198.
With RRIRVRPPRLPRPRPRPEFFPRP, the “shrunken log2 fold change” value stood at 0.183.
In the case of RRIRGRPPRLPRPRPRPRLVPRP, the “shrunken log2 fold change” value was found to be 0.725.
Take RRIRARPPRLPRPRPRPPPQPRP: the “shrunken log2 fold change” value was found to be 1.31.
As for RRIRERPPRLPRPRPRPPHSPRP, the “shrunken log2 fold change” value is 0.0332.
Regarding RRIRQRPPRLPRPRPRPCEPPRP, the “shrunken log2 fold change” value is -0.0332.
Then RRIRVRPPRLPRPRPRPHFKPRP, with -0.0898; and RRIRQRPPRLPRPRPRPCDGPRP, with -0.26.
As for RRIRTRPPRLPRPRPRPDPKPRP, the figure is 0.113; as for RRIRIRPPRLPRPRPRPAAMPRP, 0.391; as for RRIRNRPPRLPRPRPRPDAYPRP, 0.068.
Then RRIRVRPPRLPRPRPRPTNEPRP, with -0.0806.
Regarding RRIRNRPPRLPRPRPRPKREPRP, the “shrunken log2 fold change” value is 0.0191.
Then RRIRSRPPRLPRPRPRPIPLPRP, with -0.115.
Then RRIRSRPPRLPRPRPRPWFAPRP, with -0.00302.
As for RRIRNRPPRLPRPRPRPCARPRP, the figure is -0.213; as for RRIRTRPPRLPRPRPRPALDPRP, 0.196; as for RRIRARPPRLPRPRPRPRAVPRP, 1.11.
For RRIRNRPPRLPRPRPRPMNCPRP, the “shrunken log2 fold change” value was -0.57.
As for RRIRKRPPRLPRPRPRPKLWPRP, the figure is 0.656.
As for RRIRERPPRLPRPRPRPREKPRP, the figure is 0.354; as for RRIRPRPPRLPRPRPRPSEMPRP, -0.216; as for RRIRYRPPRLPRPRPRPCGCPRP, -0.0582.
In the case of RRIRQRPPRLPRPRPRPGCVPRP, the “shrunken log2 fold change” value came out at 0.269.
Regarding RRIRFRPPRLPRPRPRPRSIPRP, the “shrunken log2 fold change” value was -0.256.
Turning to RRIRKRPPRLPRPRPRPRTFPRP, the “shrunken log2 fold change” value was 0.243.
In the case of RRIRQRPPRLPRPRPRPCHTPRP, the “shrunken log2 fold change” value was -0.207.
As for RRIRFRPPRLPRPRPRPIVFPRP, the figure is -0.0906.
Regarding RRIRMRPPRLPRPRPRPVSMPRP, the “shrunken log2 fold change” value came out at 0.382.
As to RRIRPRPPRLPRPRPRPCQWPRP, the “shrunken log2 fold change” value was 0.205.
As for RRIRQRPPRLPRPRPRPEDTPRP, the figure is -0.0122; as for RRIRGRPPRLPRPRPRPNCTPRP, 0.172; as for RRIRERPPRLPRPRPRPWNVPRP, -0.0549.
Take RRIRGRPPRLPRPRPRPHCMPRP: the “shrunken log2 fold change” value was -0.207.
Then RRIRFRPPRLPRPRPRPQKCPRP, with -0.332.
Then RRIRTRPPRLPRPRPRPKDHPRP, with -0.156; and RRIRARPPRLPRPRPRPTKGPRP, with 0.308.
As for RRIRTRPPRLPRPRPRPSELPRP, the “shrunken log2 fold change” value is -0.255.
Then RRIRGRPPRLPRPRPRPCDEPRP, with 0.566.
Take RRIRDRPPRLPRPRPRPSRQPRP: the “shrunken log2 fold change” value was -0.12.
Then RRIRDRPPRLPRPRPRPSYHPRP, with -0.835; and RRIRWRPPRLPRPRPRPNDKPRP, with -0.291; and RRIRARPPRLPRPRPRPESCPRP, with 0.869.
Regarding RRIRSRPPRLPRPRPRPDYPPRP, the “shrunken log2 fold change” value was -0.0733.
Then RRIRIRPPRLPRPRPRPKIEPRP, with -0.0307; and RRIRRRPPRLPRPRPRPNLTPRP, with -0.245.
As for RRIRGRPPRLPRPRPRPLPPPRP, the figure is 1.19; as for RRIRERPPRLPRPRPRPNMYPRP, -0.976; as for RRIRCRPPRLPRPRPRPGAGPRP, 0.364.
As for RRIRERPPRLPRPRPRPLNSPRP, the figure is -0.432; as for RRIRTRPPRLPRPRPRPVRWPRP, 0.774; as for RRIRRRPPRLPRPRPRPMPIPRP, 0.25.
Regarding RRIRARPPRLPRPRPRPCWPPRP, the “shrunken log2 fold change” value was found to be 0.162.
Regarding RRIRARPPRLPRPRPRPGTHPRP, the “shrunken log2 fold change” value amounted to 0.173.
As for RRIRLRPPRLPRPRPRPDTAPRP, the figure is 0.0121.
Then RRIRIRPPRLPRPRPRPWDLPRP, with -0.119.
For RRIRLRPPRLPRPRPRPRDLPRP, the “shrunken log2 fold change” value stood at 0.0268.
Then RRIRCRPPRLPRPRPRPVYLPRP, with -0.646; and RRIRDRPPRLPRPRPRPVDHPRP, with -0.173; and RRIRRRPPRLPRPRPRPITRPRP, with 0.0299.
As for RRIRMRPPRLPRPRPRPTTPPRP, the “shrunken log2 fold change” value came to 1.15.
Then RRIRERPPRLPRPRPRPLNPPRP, with -0.0394; and RRIRGRPPRLPRPRPRPACNPRP, with 0.415; and RRIRKRPPRLPRPRPRPDFAPRP, with -0.033.
Take RRIRERPPRLPRPRPRPLEVPRP: the “shrunken log2 fold change” value is -0.166.
As for RRIRRRPPRLPRPRPRPQELPRP, the figure is 0.158.
Then RRIRMRPPRLPRPRPRPDMHPRP, with 1.15; and RRIRVRPPRLPRPRPRPYRRPRP, with -0.0654.
For RRIRSRPPRLPRPRPRPANYPRP, the “shrunken log2 fold change” value is -0.43.
For RRIRGRPPRLPRPRPRPRTCPRP, the “shrunken log2 fold change” value was found to be 0.592.
As for RRIRFRPPRLPRPRPRPCNKPRP, the figure is -0.249; as for RRIRMRPPRLPRPRPRPREFPRP, 0.0273; as for RRIRVRPPRLPRPRPRPDCRPRP, -0.0921.
For the sequence RRIRVRPPRLPRPRPRPDPHPRP, the “shrunken log2 fold change” value is -0.16.
As to RRIRGRPPRLPRPRPRPNHWPRP, the “shrunken log2 fold change” value turned out to be 0.309.
As for RRIRNRPPRLPRPRPRPIDRPRP, the figure is 0.00281; as for RRIRARPPRLPRPRPRPAYLPRP, 0.365; as for RRIRRRPPRLPRPRPRPRCLPRP, 0.219.
In the case of RRIRQRPPRLPRPRPRPYYCPRP, the “shrunken log2 fold change” value was -0.332.
